2 substances from patent publication EP2747783B1 can be followed below.

Experiment [1] concerns the target cynomolgus c-Met expressed on BAF3 cells (cynomolgus monkey). As to the kind of experiment: flow cytometry; competition with 0.5 nM biotinylated HGF on BAF3 cells with cynomolgus c-Met.
Experiment [2] concerns the target human c-Met, cell membrane expressed (A549, BxPC-3, myeloma cells) (human) (UniProt P08581). As to the kind of experiment: flow cytometry; competition with 1 nM biotinylated hHGF on A549 cells. For orientation: In flow cytometry, cells or beads pass a laser one at a time.
Experiment [3] has the same target. As to the kind of experiment: cell-based or functional assay.

For orientation: % inhibition means how much of the control response was suppressed. Lower therefore signals little suppression.

Chain of human c-Met, cell membrane expressed (A549, BxPC-3, myeloma cells) (human) (P08581 25-1390 limits assumed, form in doubt): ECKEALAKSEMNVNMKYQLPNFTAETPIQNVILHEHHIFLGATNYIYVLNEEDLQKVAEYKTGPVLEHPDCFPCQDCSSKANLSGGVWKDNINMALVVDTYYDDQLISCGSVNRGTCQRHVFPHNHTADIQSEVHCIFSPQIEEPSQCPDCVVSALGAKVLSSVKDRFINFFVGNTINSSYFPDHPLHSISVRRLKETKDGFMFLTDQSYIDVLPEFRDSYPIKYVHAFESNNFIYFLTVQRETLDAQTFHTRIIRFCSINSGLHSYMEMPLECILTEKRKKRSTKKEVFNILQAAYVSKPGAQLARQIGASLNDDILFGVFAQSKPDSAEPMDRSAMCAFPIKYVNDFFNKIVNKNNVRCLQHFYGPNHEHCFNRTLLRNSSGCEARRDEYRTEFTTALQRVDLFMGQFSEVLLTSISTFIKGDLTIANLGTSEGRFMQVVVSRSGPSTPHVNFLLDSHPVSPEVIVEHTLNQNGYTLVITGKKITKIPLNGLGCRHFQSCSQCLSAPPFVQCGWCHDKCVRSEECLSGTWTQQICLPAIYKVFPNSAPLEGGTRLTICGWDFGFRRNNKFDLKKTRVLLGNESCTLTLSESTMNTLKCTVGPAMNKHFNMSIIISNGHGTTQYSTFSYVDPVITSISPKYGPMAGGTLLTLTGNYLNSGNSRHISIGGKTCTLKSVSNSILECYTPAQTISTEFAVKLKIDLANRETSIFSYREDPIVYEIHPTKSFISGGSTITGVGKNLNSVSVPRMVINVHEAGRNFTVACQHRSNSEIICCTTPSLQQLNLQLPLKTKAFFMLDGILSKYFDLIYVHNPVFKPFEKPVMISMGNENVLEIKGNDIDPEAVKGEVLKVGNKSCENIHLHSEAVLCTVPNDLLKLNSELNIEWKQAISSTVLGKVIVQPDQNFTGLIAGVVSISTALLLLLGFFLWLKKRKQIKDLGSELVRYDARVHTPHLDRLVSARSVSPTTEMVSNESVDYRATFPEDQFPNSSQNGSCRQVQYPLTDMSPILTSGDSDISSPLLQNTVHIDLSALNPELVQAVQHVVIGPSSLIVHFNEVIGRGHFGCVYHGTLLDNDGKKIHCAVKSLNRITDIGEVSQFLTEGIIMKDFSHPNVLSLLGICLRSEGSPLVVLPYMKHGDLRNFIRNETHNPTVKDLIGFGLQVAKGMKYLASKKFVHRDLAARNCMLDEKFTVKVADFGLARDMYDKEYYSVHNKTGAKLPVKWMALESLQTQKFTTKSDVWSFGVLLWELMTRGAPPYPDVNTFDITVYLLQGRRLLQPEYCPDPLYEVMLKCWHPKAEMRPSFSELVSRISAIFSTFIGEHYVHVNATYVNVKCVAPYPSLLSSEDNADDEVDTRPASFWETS
Chain of cynomolgus c-Met expressed on BAF3 cells (cynomolgus monkey) (A0M8R7 25-1381 S170N/I621T limits assumed, form in doubt): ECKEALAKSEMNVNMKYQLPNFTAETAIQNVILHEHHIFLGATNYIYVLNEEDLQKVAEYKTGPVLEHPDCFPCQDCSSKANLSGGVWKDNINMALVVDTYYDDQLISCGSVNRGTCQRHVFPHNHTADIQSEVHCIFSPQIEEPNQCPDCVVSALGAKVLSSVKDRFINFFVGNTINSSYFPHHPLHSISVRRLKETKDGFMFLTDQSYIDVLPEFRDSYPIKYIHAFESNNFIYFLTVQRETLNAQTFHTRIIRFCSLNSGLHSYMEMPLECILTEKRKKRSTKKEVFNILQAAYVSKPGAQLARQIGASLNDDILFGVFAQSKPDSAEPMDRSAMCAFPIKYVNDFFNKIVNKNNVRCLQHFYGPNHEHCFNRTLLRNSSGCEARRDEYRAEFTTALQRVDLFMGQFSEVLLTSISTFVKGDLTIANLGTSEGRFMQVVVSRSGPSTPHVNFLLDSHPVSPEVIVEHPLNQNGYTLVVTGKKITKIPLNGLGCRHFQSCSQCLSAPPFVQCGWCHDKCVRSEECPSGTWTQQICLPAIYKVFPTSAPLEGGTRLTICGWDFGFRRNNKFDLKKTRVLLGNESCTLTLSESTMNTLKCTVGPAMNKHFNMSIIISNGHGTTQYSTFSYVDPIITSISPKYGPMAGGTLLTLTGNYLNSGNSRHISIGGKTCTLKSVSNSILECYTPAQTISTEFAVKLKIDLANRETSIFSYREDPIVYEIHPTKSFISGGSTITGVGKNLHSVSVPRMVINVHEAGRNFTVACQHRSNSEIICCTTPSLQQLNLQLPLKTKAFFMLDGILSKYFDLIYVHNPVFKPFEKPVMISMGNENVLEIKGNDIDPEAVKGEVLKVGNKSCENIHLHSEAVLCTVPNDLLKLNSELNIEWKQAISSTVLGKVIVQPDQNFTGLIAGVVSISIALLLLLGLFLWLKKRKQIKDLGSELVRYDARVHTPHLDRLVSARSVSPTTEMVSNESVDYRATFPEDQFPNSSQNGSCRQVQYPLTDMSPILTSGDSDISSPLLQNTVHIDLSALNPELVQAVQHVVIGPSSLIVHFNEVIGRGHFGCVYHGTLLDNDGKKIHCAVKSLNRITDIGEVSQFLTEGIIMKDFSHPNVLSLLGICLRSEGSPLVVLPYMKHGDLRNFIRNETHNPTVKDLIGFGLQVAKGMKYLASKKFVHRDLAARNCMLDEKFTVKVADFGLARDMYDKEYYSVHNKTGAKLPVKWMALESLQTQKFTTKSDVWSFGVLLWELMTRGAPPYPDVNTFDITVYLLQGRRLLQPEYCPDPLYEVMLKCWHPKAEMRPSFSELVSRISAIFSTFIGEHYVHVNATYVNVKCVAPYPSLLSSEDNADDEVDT

On to anti-c-Met antibody 5D5, for which the % inhibition in experiment [1] and in experiment [2] was 100% each time. In experiment [3], this substance had a c-Met phosphorylation without HGF (agonistic activity), A549 cells of 37 nM.

“anti-c-Met antibody fragment 5D5 Fab from mAb”: in experiment [3], the % inhibition, HGF-dependent A549 cell migration amounted to 112%; the % inhibition, HGF-dependent c-Met phosphorylation, Experiment 1 came out at 96.4%; the % inhibition, HGF-dependent c-Met phosphorylation, Experiment 2 is 95.9%; the % inhibition, HGF-dependent proliferation of BxPC3 cells turned out to be 94.8%. Besides, in experiment [3], the IC50, HGF-dependent c-Met phosphorylation, experiment 1 amounted to 10.4 nM; the IC50, HGF-dependent c-Met phosphorylation, experiment 2 came to 9.09 nM; the IC50 ratio to 5D5 Fab, HGF-dependent A549 cell migration is 1; the IC50 ratio to 5D5 Fab, HGF-dependent c-Met phosphorylation, Experiment 1 turned out to be 1. Also, in experiment [3], the IC50 ratio to 5D5 Fab, HGF-dependent c-Met phosphorylation, Experiment 2 was 1 and the IC50 ratio to 5D5 Fab, HGF-dependent proliferation of BxPC3 cells worked out at 1.
